Test: soluble on expression in E. coli; label from the status in PepcDB or PDB records

Sequence	soluble on expression in E. coli
MAHHHHHHMLRLSFVHRKSRHQNVLRRGRPHMQKYRELNRWQRQAQGISKWDQSQSHRPLPYVERFNPEGVGVTRGTSAFAWQWWHTQQPWLPNVAPPNHTGRKITNTSGTTEETAKPPAWDEEFTSVVLSMTDSEIREYLLDKLTDVIFAETQRDGYELRRLDFEGNPLTELPERRIIESFVFEEETLRERVIYQVVEGVFRLSPTSADRRELRSVETIIDYVLTHVSAARPDSRPRVTPAALAVMQQCPLQPELGFVHALPVDSRDEILQEWERMHHLDWQFGKAVYVPRSREETRGNLTWLREERHNAERVEFMKRVASGEAKAEHMRRIAEAACTERPETMHG	not soluble
GPGSMTAVSNAAAVQATSGANGGSAVVTFFTTTYSKPMPEQSFSVPLNVLPDGLNQLVQNVLGVEGQNFDFLYKDEYIGTTLFRFLQRRGISCEELLNIEYTPALQAKEGNLLPHDDWVSSVRAPYRNNAELLLTGSYDHCVRLWDGDSCLALGSFHREAVKEVALHPVAPASSKTGRKRTRLDGDFMFASASKDGSVAAWKLDSTSSHMQLLGSIQAHTDGVDSVAIAPGDGRLVATASWDTTVKVFNWEQMMEGDTVPSKKAPLVTFTDHSRPVLCSRFSAAHGAARLYSAGYDGHIKCLDTEAAQLQSQFKGDHPINRISVKPAGSSPAADLLLSACTDNRARLFDTRQKDVVKTFSGSCQWLYSVVWLWDAQEGDAEHSGGSLFAVASEDATVRVYDLRCTNTALLTLDAMHTDGVLDVTYVGQSIIASGGKDNKTRSFALSKEGLLS	not soluble
MSSYRGGSRGGGSNYMSNLPFGLGYGDVGKNHITEFPSIPLPINGPITNKERSLAVKYINFGKTVKDGPFYTGSMSLIIDQQENSKSGKRKPNIILDEDDTNDGIERYSDKYLKKRKIGISIDDHPYNLNLFPNELYNVMGINKKKLLAISKFNNADDVFTGTGLQDENIGLSMLAKLKELAEDVDDASTGDGAAKGSKTGEGEDDDLADDDFEEDEDEEDDDDYNAEKYFNNGDDDDYGDEEDPNEEAAF	not soluble
MGSDKIHHHHHHMSGMIGKIQDKKIFSITIIPSSWCNFRCVYCYENDHYKIKNMITTSEMTKRIKLFLENNIKTGFFRKVHIRWYGGEPLLDFKTIIDIMDFTNSIGKTYKTDIIGEIITNGYLLDIVKFKILLEKGVKIFQVTIDGYKDAHDKLRPLLNGKPTFDKIFENLIQTRNVTDNFFMFIRSNVMPDNLDSIKKFLDLASNYFSRDRRYYFTFFPVTRSGGDNDKNLKVIEPKKRMEIIQELYMYATQLGLNIPDKDTLLQIDGVPAMDDLCQALYPFSIIIRNDGKLFKCPLTVMIDDESVGHIEEDGSIVLDESKINRWAKYILSPLSRGCPRLHELGEVVGVEAE	not soluble
MSLSGLPESTLRYYEQIGIIDPIARDPSSGHRVYSDKDIESLTTIACLAATGMPLESMREYLKNRFDGPEGARRQIELLDAQSLRLAANAEALRIQQAYVSLKSLYWRAIAEGHEDEANRILEENKDVIENVKKQPGKGAIAREGHHHHHH	soluble
MFSPSTTTLFRFVECTEDQHALEILEILNDAIINSTALYDYKPRSKESMAAWFATKRQNNFPIIGAVNEVGQLLGFASWGSFRAFPAYKYTVEHSVYIHKDYRGLGLSKHLMNELIKRAVESEVHVMVGCIDATNVASIQLHQKLGFIHSGTIQQAGFKFGRWLDAAFYQLTLDTPLHPQDD	soluble
MGSDKIHHHHHHMIKCIAVDDEPLALEQLTGYIARVPFLQLIASCQDAFSAMQVLSEEEVDLMFVDIHMPDLNGLDLVRSLVVKPLIVFTTAYPEYAVEGFKVDAVDYLLKPFEFQDLLKAADKARRQFEYHLQDNGGGTETDLLEKDGSLFVKSEYKIIRINVADICYIEGMSEYVRIYTDTADKPVVTLLSMRKLEERLPQEMFMRVHRSYIVNLRKITEVSRLRIIFNKNIYIPVGDNYKERFTEYINKICVSS	not soluble
SGAAAAEADRTLFVGNLETKVTEELLFELFHQAGPVIKVKIPKDKDGKPKQFAFVNFKHEVSVPYAMNLLNGIRLYGRPIKIQFRSGSSHAPQDVSLSYPQHHVGNSSPTSTSPSRYERTMDNMTSSAQIIQRSFSSPENFQRQAVMNSALRQMSYGGKFGSSPLDQSGFSPSVQSHSHSFNQSSSSQWRQGTPSSQRKVRMNSYPYLADRHYSREQRYTDHGSDHHYRGKRDDFFYEDRNHDDWSHDYDNRRDSSRDGKWRSSRH	soluble
MDDPNRIVSASRRPKALIRLLDSQQIEVVLHSRLSVEDVLRLVAEKVDLSFPDSQYFCLGFSDNLNNFHWLDGSVILYDLVASTSNPKGTLTLSHHVRFFVDTIYEVQCASTAKLFFFDIHNQLARHELLVTSEDYFELVAILVSVFVPDCQEHTTAEAISRIMPMSHPPYILLKTDQSEVERRVFEKFRYYRRLPVGTGMISFIKLAEKSESYGYRMYEALNENNDKCILSIGYKGIYIYRRSRHQNLITPYLAYPWRVIDNLYYRDKKFSIEIREPKNSLHSNSSIGTMPSAKIGDGSTSSLPMSSAKPMSTQTSEPQLPDVPEPNESLHNKTIDEFQKDQEKCDRLKARKAELEMRLRQKMQELKDVCVEEGDITGEMPVEINDVVLPGDDFPRLKRRVGTAYSIPDELIKADKADKMSQLETDVELHRRIVAAASRLATDKNTNKSVRKKRQKDLQAARLRLNRLEQGLQQMRHSASKPDISSLTSDSSNSWTASNSSGPMLTMAMTKSCPTTPRGSVPDLRNGLDDEKDEFDENVEDRVSRRAPSAISRHSLSQRYSGVSSSSTSSGSDSMGLGLPPRPTSRKSQQQQTTPFDDQLDNPMICEIPPPPSSAAAHPLLVTNLLSRGKTTGCRVLTEYYPVLKRIRTNY	not soluble
MSLGEKGQAEIIKSLTEQLDQVQSLDDDRIIRRYMEMINATLRTNYYQLDEHKQNKPWLSLKMKPSEIPEIPAPVPAFEIFVYAPDIEGVHLRGGKVARGGLRWSDRQEDFRTEILGLVKAQQVKNTVIVPVGAKGGFVCKKQYLYTTRDEIFAEGQRCYKRFIRALLDVTDNIIEGQVVPPKNVVRHDEDDPYLVVAADKGTATFSDLANSVSAEYQFWLGDAFASGGSNGYDHKAMGITAKGGWESVKRHFREMGIDCQTTDFTAIGIGDMAGDVFGNGMLLSKHIRLLAAFNHIHIFIDPTPDSASSWEERNRLFNLPRSSWEDYNPKLISKGGGVFSRKAKAITLTPEMQKMLNTKKTTLAPNELIKMILKMEVDLLWNGGIGTYVKSSIETHTDVGDRANDGLRVDGREVNAKIIGEGGNLGMTQRGRIEFALKGGRVNTDFVDNVGGVDCSDNEVNIKIFLNGLVANGDLTLKQRNQILESMKDEVGSIVIEDAYGQSESISVTEAQGEGHHHHHH	not soluble
AHHHHHHGSEEKIILFVCVKNSARSQMAEAFFNYYNDDPRFKAMSAGTEPADDIDPLAKKVMEEIGISLEGQKPKLYTPEMADKAYIVITMGCLDKCPYAPPEKTWDWGLEDPYGKPIEKYREVRDEIKRRVLKLIEDLKAGKSREEIIGRKSLFAI	soluble
MSLENIIARRYAKAIASRADINDFYQNLCILNSAFVLPKFKNIIESNEIKKERKMEFLDSFFDIKNSSFQNFLRLLIENSRLECIPQIVKELERQKAFKENIFVGIVYSKEKLSQENLKDLEVKLNKKFDANIKLNNKISQDDSVKIELEELGYELSFSMKALQNKLNEYILKIEGHHHHHH	not soluble
MAHHHHHHMILRTAGASNVYSVFAYPGTGKARDMLTTETADTSGSESGNLTNVRARHCAHFQFNKMCNLGESCNFIHSLVPYVQRLSMSSQGPLYNSIVTQRPLLMPSTSMAHFSRFPNGNNNNGVVSSYSMEFMQPSMLHVSPQTQQQQQQQKQQQKQQQKQLHQQPQHAMPPPPPTVSHLIPSPQPSEHLMYQSNMSMMSLPMYMSSPISSTWDGVRYGANYQ	not soluble
MSLDNLITIYDKNDANNLAEHLYDTQGLGALSDWLTATVSNKLNGAEIFQGTYSINGTNADLIVEGRIIQCYVDENRAKQRLRIYYAKTSVIGNTIEVKAEPIFNDIRKSVLNKYDSGTEKITATQAWQNAKVLAKPAIPSQFSFSSLVDTLANVKIEKANFLEFFGGKEGSILDRFHGEFLKDNNTLRHEKSLGTDHKIKAIYTKNLTGLDLEIDAQSVLVGVYPFISSSSEGEDEITLPEEVIFTDYVDDYPAGYVSFVDFKDKATDVATLREAAKDWLKTNIDKQKPQVSGSIELVPLRHQRGYEKFVDLEKVSMGDGVDVYHPQLKVNMSARIVEYTFNVLTNSYDKLVVGNVKTNFLENTENNVSNLINDEGHHHHHH	soluble
MKGDHYSPNWPQLALSKKQSVNWVCERCGVQCLKPGEGKGLLKEERYRFRMAVHHCDYDPSNNSPSNLMALCSLCHLYYHRRQQGNISLGQLSLEFYLEHHHHHH	soluble
MDKIVIKGGNKLTGEVKVEGAKNAVLPILTASLLASDKPSKLVNVPALSDVETINNVLTTLNADVTYKKDENAVVVDATKTLNEEAPYEYVSKMRASILVMGPLLARLGHAIVALPGGCAIGSRPIEQHIKGFEALGAEIHLENGNIYANAKDGLKGTSIHLDFPSVGATQNIIMAASLAKGKTLIENAAKEPEIVDLANYINEMGGRITGAGTDTITINGVESLHGVEHAIIPDRIEAGTLLIAGAITRGDIFVRGAIKEHMASLVYKLEEMGVELDYQEDGIRVRAEGELQPVDIKTLPHPGFPTDMQSQMMALLLTANGHKVVTETVFENRFMHVAEFKRMNANINVEGRSAKLEGKSQLQGAQVKATDLRAAAALILAGLVADGKTSVTELTHLDRGYVDLHGKLKQLGADIERIND	not soluble
MYRIIEAPNSGKYPFSHSLLIGKSCIIDTGSGEALAPLRVDCVLNTHWHEDHIAMNSIGRKVLAHPLDAEAIESYEEFRRRYGIGDSVRLFINFEFGQVDDVFEDGEQLEFEGVSVEVIHTPGHSAGHCCFVINNEAVFLGDIDLTSFGPWYGCLDCDVDDFVRSVKKMMREVERRDIEIAIPSHGRPVYGKEEIIGAMREYLKKIFERDKAIRELVRLGVDPVGKGIIYRKIPEPREIYLHFEKIMVEKHLTTSLDEFCLDLEHHHHHH	not soluble
MGSDKIHHHHHHMRGEQSPNGLHYAREHLSCKNYMTDIDTGFKYIKFDTEKCIEEEYTHKNYLLFFLEGDFSVYCNQFCNRTFHSNEMVVLPKSSMIKISATDKSQMLAMAFDIPQSNCDKLLFQGLSSICENIDYDFSPIPMRYPLMPFLETVVHCLRNEMNCTYLHNVIEREFFFLLRGFYNKKEIATLFHPIIGRQLEFRDFVMQNYSKVNNLDELITLSNIGRTSFFIKFKEEFGITAKQWMMKQLKKRILGKVIEPGICVKQLMEVCNFESQAQLYRYFKQHFRCTPKQLIDRYQAKTDNL	not soluble
MSLERKLEIVKTKTENYTIKVDGVFIHSKYDPLREAETFAIKNIELIKNSRYIVIYGFGLGYHIEAVLRHMNEESMLAVFDADLEVIKEAKKQSLYKKLIKNPRLKCFFDYGDEFLKEFSKSLSLAKNIIIYRPSLKVLPEEFGHMARLLKGYELAKIEIEKHGKLAEYNYDMNLKKTHKKMQDFLSFYSFGCENIVLVSSGPSLDYNIESLKKVRDRVKIFCAGSAAEFLIKNHIIPDMICIIDPQDIVYTQLQSILNKNIPLCFLSSACSRVVSEWSGEKFLFFNDFNAARENNDVVVETGKSVATAILSIAVLKKPKKVIFIGQDLAYLNGKSHHDNYGSSQSSGIKKVRSVDGEYLETNEGFLYFKSWIEQKIMKSKDIEFINCSSGAEIKGTIASKLIDAIKEGHHHHHH	soluble
MSLETTHSFGDRAVFAFGKHTGKIFKYAPRVLKDQDPEDLHQLRVGVRRLRTAVIGFMPAVQLPQGITERKIGKIGQQLGVQRDNDVLQEILLHKYLPHLPTSEQGCLEKVLKRLQKERKQAFKATYKLLTHDKFTQFKQSWEIWLEHPHFTSLGGLAIADVLPDLLLPQLSQFFLHPGWLVGTEIDPDTNSSNRQRRCIDLSPTAIETLLDGEESILHDLRKEAKRTRYQMELFSDYFGEEYQQLLAQVKMTQEILGNLQDSFVLRAMVEQYLDVDLKQLCPQWSAIFHGDRLGYWDQWQPLQSQFIDPVYRHHCRQLVQNPLVNSDQPTSSNLEGHHHHHH	soluble
